From patent US20080159989A1

Molecular target: Nodal (mouse) (UniProt P43021)

Substance	% of beating EB (Cripto-/- ES cells transfected with Cerberus, EBs treated with recombinant Cripto) (% of beating EB)	% of beating EB (Cripto-/- ES cells transfected with Cerberus-S, EBs treated with recombinant Cripto) (% of beating EB)
Cerberus	10.3	
Cerberus-Short (CerS)		8.3
